How the values were obtained:
HeLa Kyoto [1] = assay: solubility change mitosis vs G1/S (difference of NP-40 vs SDS log2 ratios) (log2 ratio difference); higher = more soluble in mitosis
HeLa Kyoto [2] = assay: solubility in G1/S (NP-40 vs SDS abundance) (log2 ratio); higher = more soluble; conditions: cell cycle stage: G1/S
HeLa Kyoto [3] = assay: melting temperature (median over replicates), in situ; higher = more thermally stable
HeLa Kyoto [4] = assay: thermal stability score vs G1/S (z-score of summed log2 fold changes over temperatures); higher = more thermally stable than in G1/S
[5] = cell cycle stage: early G1 (4.5 h after nocodazole release)
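For melting temperature (median over replicates), in situ in this document: HeLa Kyoto cells synchronized by double thymidine or nocodazole block, proteins quantified by TMT10plex mass spectrometry, three independent biological replicates.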
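For solubility change mitosis vs G1/S (difference of NP-40 vs SDS log2 ratios) in this document: synchronized HeLa Kyoto cells (double thymidine block for G1/S, nocodazole release for mitosis), protein amounts in NP-40 versus SDS lysates quantified by mass spectrometry, three biological replicates.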
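For solubility in G1/S (NP-40 vs SDS abundance) in this document: HeLa Kyoto cells arrested at G1/S by double thymidine block, proteins quantified by TMT10plex mass spectrometry in mild NP-40 versus SDS extracts, three biological replicates.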
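For thermal stability score vs G1/S (z-score of summed log2 fold changes over temperatures) in this document: synchronized HeLa Kyoto cells, proteins quantified by TMT10plex mass spectrometry, three biological replicates, mitosis taken 0.5 h after nocodazole release, G1/S directly after double thymidine block.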

Sequence of ZFR (chain, as listed by the source): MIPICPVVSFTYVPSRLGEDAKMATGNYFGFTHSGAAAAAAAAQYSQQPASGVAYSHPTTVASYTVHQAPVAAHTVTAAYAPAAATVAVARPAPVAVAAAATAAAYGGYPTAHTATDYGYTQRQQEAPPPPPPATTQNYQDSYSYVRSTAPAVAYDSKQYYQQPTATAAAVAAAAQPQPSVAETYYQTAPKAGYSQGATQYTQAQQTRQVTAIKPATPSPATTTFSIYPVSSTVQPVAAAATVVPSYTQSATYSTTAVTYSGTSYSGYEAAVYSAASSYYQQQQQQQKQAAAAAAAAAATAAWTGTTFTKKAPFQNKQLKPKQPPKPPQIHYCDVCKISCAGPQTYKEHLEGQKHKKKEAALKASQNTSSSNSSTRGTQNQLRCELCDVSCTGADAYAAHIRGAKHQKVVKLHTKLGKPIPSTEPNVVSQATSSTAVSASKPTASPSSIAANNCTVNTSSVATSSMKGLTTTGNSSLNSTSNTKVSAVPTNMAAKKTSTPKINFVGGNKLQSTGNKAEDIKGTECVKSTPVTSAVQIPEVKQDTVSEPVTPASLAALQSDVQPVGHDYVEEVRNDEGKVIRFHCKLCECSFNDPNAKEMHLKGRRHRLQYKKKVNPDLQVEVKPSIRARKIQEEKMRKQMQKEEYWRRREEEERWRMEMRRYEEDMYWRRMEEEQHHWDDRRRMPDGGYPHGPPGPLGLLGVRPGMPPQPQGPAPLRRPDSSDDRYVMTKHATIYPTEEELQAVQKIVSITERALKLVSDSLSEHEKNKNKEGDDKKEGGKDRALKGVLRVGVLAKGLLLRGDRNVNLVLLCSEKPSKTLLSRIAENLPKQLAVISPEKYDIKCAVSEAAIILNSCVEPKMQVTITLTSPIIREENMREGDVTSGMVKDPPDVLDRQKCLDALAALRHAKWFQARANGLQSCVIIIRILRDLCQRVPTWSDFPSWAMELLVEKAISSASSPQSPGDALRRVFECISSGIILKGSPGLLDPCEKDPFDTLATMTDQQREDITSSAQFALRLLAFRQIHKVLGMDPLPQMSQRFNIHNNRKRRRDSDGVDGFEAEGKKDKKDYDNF
Sequence of ZMAT2 (chain, as listed by the source): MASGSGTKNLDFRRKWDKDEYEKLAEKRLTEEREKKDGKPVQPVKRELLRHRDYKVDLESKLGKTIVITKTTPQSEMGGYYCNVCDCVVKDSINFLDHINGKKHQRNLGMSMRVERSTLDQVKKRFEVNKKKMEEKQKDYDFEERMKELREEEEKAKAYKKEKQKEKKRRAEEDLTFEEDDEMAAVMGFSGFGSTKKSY

Row | Substance | solubility change mitosis (log2) (HeLa Kyoto [1]) | solubility in G1/S (log2) (HeLa Kyoto [2]) | melting temperature (HeLa Kyoto [3]; cell cycle stage: G1/S) | melting temperature (HeLa Kyoto [3]; cell cycle stage: mitosis) | thermal stability score (HeLa Kyoto [4]; [5]) | thermal stability score (HeLa Kyoto [4]; cell cycle stage: mitosis)
1 | YLPM1 | 0.495 | -0.708 | 48.3 °C | 48.3 °C | 0.777 | 0.487
2 | ZFC3H1 | 0.0411 | -0.247 | 49.3 °C | 49.9 °C | 0.428 | 0.858
3 | ZFR | 0.103 | -0.167 | 52.4 °C | 51.9 °C | 0.655 | -0.928
4 | ZMAT2 | 0.427 | -0.324 | 57.8 °C | 54.3 °C | 1.39 | -4.93
5 | ZMYM4 | 0.281 | -0.601 | 46 °C | 49.4 °C | 1.6 | 3.25
6 | ZNF24 | 0.265 | -0.217 | – | 52.2 °C | 1.15 | 1.78
